From US20020119139A1, “Cloning and recombinant expression of mammalian group XII secreted phospholipase A2” (priority 2000, published 2002)

B1: hGIIA: human group IIA secreted phospholipase A2, used as literature comparator (protein, UniProt P14555 21-144, looked up)
Phospholipase A2, membrane …: NLVNFHRMIKLTTGKEAALSYGFYGCHCGVGGRGSPKDATDRCCVTHDCCYKRLEKRGCGTKFLSYKFSNSGSRITCAKQDSCRSQLCECDKAAATCFARNKTTYNKKYQYYSNKHCRGSTPRC
B2: hGXII: novel human secreted phospholipase A2 of group XII, mature protein of 167 amino acids (SEQ ID No 2), produced in E. coli (protein)
chain: MALLSRPALTLLLLLMAAVVRCQEQAQTTDWRATLKTIRNGVHKIDTYLNAALDLLGGEDGLCQYKCSDGSKPFPRYGYKPSPPNGCGSPLFGVHLNIGIPSLTKCCNQHDRCYETCGKSKNDCDEEFQYCLSKICRDVQKTLGLTQHVQACETTVELLFDSVIHLGCKPYLDSQRAACRCHYEEKTDL

Columns and labels:
[1] = from reference (18); cited from earlier work
[2] = Ca2+ dependency of the initial velocity of hydrolysis of POPC vesicles; format: biochemical; details: POPC vesicles with 1-palmitoyl-2-[8,9-3H]palmitoyl-sn-glycero-3-phosphocholine
Procedure: (§1) FIG. 3 represents the enzymatic properties of hGXII. […] Additional assay details have been reported elsewhere (18).
(§2) Large unilamellar vesicles (0.1 μm) of POPC, POPG, and POPS (31) were used to measure the initial rates of hydrolysis by hGXII in Hank's balanced salt solution with 1.2 mM CaCl2 and 0.9 mM MgCl2 using the fatty acid binding protein assay (17). The pH-rate profile and Ca^2+ dependency for the action of hGXII on POPG and POPC vesicles, respectively, were obtained as described (17).

[3] = Initial rates of hydrolysis of large unilamellar vesicles, fatty acid binding protein assay; format: biochemical
Procedure: as §1, §2

[4] = sPLA2 activity secreted into culture medium of transiently transfected HEK293 cells; format: cell-based; details: 1-5 days after transfection
Source text: (§3) A mammalian expression vector containing the full-length hGXII cDNA was first used to transiently transfected HEK293 cells. […] Mass spectrometry analysis gave an experimental mass of 18,702.6±0.5 Da, which agrees well with the mass of 18,702.1 Da calculated from the sequence of mature hGXII shown in FIG. 1A.

[5] = sPLA2 activity assay using radiolabeled E. coli membranes; format: biochemical; details: recombinant protein from E. coli; also active on POPG, POPS and POPC vesicles
Source text: as §3
The decrease as the pH is lowered presumably reflects, in part, the protonation of the active site histidine. As for all mammalian sPLA2s examined so far, the enzymatic activity of hGXII on phosphatidylglycerol vesicles is highest (FIG. 3C), which probably reflects the tighter binding of hGXII to anionic vesicles (37). Although hGXII hydrolyzes POPC at only ˜7% of the rate of POPG, this difference is small compared to the greater than 10^5-fold preference of hGIIA for POPG versus POPC (18).

[6] = pH-rate profile of hydrolysis of POPG vesicles; format: biochemical
Procedure: as §1, §2

Molecule	preference for POPG versus POPC [1]	Kca (Ca2+ dependence of sPLA2 activity toward POPC vesicles) [2] [µM]	POPS as substrate ([3]; POPS vesicles)	specific enzymatic activity compared to other mammalian sPLA2s ([3]; compared to hGIB, hGIIA, hGV, hGX, comparable to mGIIE)	enzymatic activity on phosphatidylglycerol vesicles ([3]; compared with POPC and POPS vesicles)	rate of POPC hydrolysis as % of the rate of POPG ([3]; large unilamellar vesicles (0.1 μm), Hank's balanced salt solution, 1.2 mM CaCl2, 0.9 mM MgCl2) [%]	sPLA2 activity secreted into the culture medium versus cells transfected with vector lacking the insert [4]	sPLA2 catalytic activity [5]	pH of maximal activity [6]
B1	greater than 10^5 fold								
B2		30 ± 10	good substrate	low	highest	~7	barely above	catalytically active	~8.0
